Experimental data taken from the nanobody polyreactivity screen of Harvey et al. (2022).

Experiment: yeast display, Sf9 membrane polyspecificity reagent, FACS + sequencing; frameworks hold sequencing errors
Outline: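 A nanobody's polyreactivity label depends on the gate it was sorted from. Yeast display cells were stained with 10% biotinylated, detergent-solubilized Sf9 membrane reagent for 1 hour at 4 °C, enriched on streptavidin microbeads and sorted by FACS. The low and high (top ~1%) gates were set on anti-HA fluorescence for expression and streptavidin fluorescence for reagent binding.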

| Sequence | polyreactivity (PSR sort gate) |
| --- | --- |
| QVQLVESGGGLVQAGGSLRLSCAASGFIFYNYAMGWSRQAPGKERELVAAITGGGSTNYADSVKGRFTISRDNAKTTVYLQMNSLKPEDTAVYYCAAEEGPPWSRYDYWGQGTQVTVSS | low polyreactivity |
| QVQLVESGGGLVQAGGSLRLTCAASGNNYLDNAMGWYRQAPGKERELVASITRSGSRTYYADSVKGRFTISRDNAKNTGYFQMNSLKPEDTAVFYCNAGVNERQYDYWGLGTQVTVSS | high polyreactivity |
| QDQLVESGGGLLQAGGSLRLSCAASGRTFNSYAMGWYRQAPGKERVLVAAISSSGGSTYYADSVKGRFTISRDNAKNTVYLEMNSLKPEDTAVYYCAAGLGSTSALLYGYWGQGTLVTVSS | high polyreactivity |
| QVQLVESGGGLVQAGGCLRLSCAGSRSTFHYYTMGWYRQAPGKERELVAAISWRGTSTYYADSVKGRFTISRDNAKNTLYVQMNSLKPEDTGVYYCAVRSSPGAGYYYWGQGTQGTVSS | high polyreactivity |
| QVQLVESGGGLVQAGGSLRLSCAASGSNYSGYAMGWARQAPGKERELVAAITKSGGRTYYADSVKGRFTISRDNAKNTVYLQMNSLKPEDTAVYYCAKAYPGTYREYDYWGQGTQVTVSS | high polyreactivity |
| QVQLVESGGGLVQAGGSLRLSCAASGIIFPFYAMGWYRQAPGKERELVAAITSDGNTNYADSVKGRFTISRDNAKNTVYLQMNSLKPEDTAVYYCNAETQYGVLSWHSTRHDYWGQGTQVTVSS | low polyreactivity |
| QVQLVESVGGLVQAGGSLRLSCAASGYIFYGYAMGWYRQAPGKEREFVAAITVRGGSTYYADSVKGRFTISRDNAKNTVYLQMNSEKPEDTAVYYCAAAPQFTFGVGYWGQGTQVTVSS | low polyreactivity |
| QVQLQESGGGLVQAGGSLRMSCAASGNIFDADIMGWYRQAPGKERELVASITDGRRTNYADSVKGRYTISRDSEKNTVYLQMNSLKPEDTAVYYCAAIAYPVVPTYFDYDSDYFHWGQGTQVTVSS | high polyreactivity |
| QVQLVESGGRLVQAGGSLRLSCAASGRNFGLYAMGWYRQAPGKEREFVAAIRWIGGGTYYADSVKGRFTISRDNAKNTVYLQMNSLKPEDTAVYYCAARLSVAWVGYDYWGQGTQVTVSS | low polyreactivity |
| QVQLVESGGGLVQAGGSLRLSCAASGRTFRWNAMGWYRPAPGKERELVAAISSGGSTYYADSVKGRFTISRDNAKNTVYLQMNSLKPEDTAVYYCNKYYVRAYDTQEYDYWGQGTQVTVSS | high polyreactivity |
| QFQLVESGGGLVQAGGSIRSSCAASGIIFWGNAMGWYRQAPGKESELVATITGRGGSTYYADSVKGRFTISRDNAKNTVYLQMNSLKPEDTAVYYCNADSSRYYRALEYWGQGTQVTVSS | low polyreactivity |
| QVQLVESGGGLVQAGGSLRLSCAASGRIFSYNAMGWYRQAPGKERELVAAISYRGGSTYYADSVKGRFTISRDNAKNTVYLQMNSLKPEDTAVYYCNAEAYYPYGYDYWGQGTQVSVSS | low polyreactivity |
| QVQLVESGGGLVQAGCSLRLSCAASGRPFWYNAMGGYRQAPGNVRELVAGISGSGGSTYYADSVKGRFTISRDNAKNTVYLQMNSLKPEDTAVYYCAATTGYSRSYRYGYWGQGTQVTVSS | high polyreactivity |
| QVQLVESGGGLVQAGGSLRLSCAASGRIYTHYAMGWYRQAPGKERELVAAISYRGGSTYYADSVKGRFTISRDNAKNTVYLQMNRLKPEATAVYYCNKYRFVYSLDDYWGQGIQVTVSS | high polyreactivity |
| QVQLVESGGGLVQAGCSLRLSCAASGSIFYGYAMGWYRQAPGKERELVARITGSGGDTSYADSVKGRFTISRDNAKNTVYLQMNSLKPEDTAVYYCNTDLYITYTLYTGSEYDYWGQGTQVTVSS | low polyreactivity |
| QVQLVESGGGLVQAGGSLRISCAASGGIFDTYVMGWYRQAPGKERELVAAISSSGSTTYADSVKGRFTISRDNAKNTVYLQMNSLKPEDTAVYYCNADYSTIWRYDYWGQGTQVTVSS | low polyreactivity |
| QVQLVESGGGLVQAGGSLRLSCAASGRIFSVNAMGWYRQATGKERELVASITMSGGSTYYADSVKGRFTISRDNAKNTVYIQMNSLKPEDTAVYYCAKGWSRYNDRERDDEYWGQGTQVTVSS | low polyreactivity |
| QGQLVESGGGLVQAGGSLRLSCDASGRIFRKYDMGWYRQAPGKERELVAAISGTGITYYADSVKGRFTISRDNANNTVYLQMNSLKPEDTAVYYCARGSKPRALSWADPSATSIYDYWGQGTQVTVSS | low polyreactivity |
| QVQLVESGGGLVQAGGSLRLSCAASGSTFLGNAMGWYRQAPGKERELVAGITSGGTTNYADSVKGRFTISRDNAKNTVYLQMNSLKPEDTAVYYCNADVWIGQRFDPGYDFDYWGQGTQVTVSS | low polyreactivity |
| QVQLVESGGGLVQAGGSLRLSCAASGSIFHGNAMGWYRQAPGKERELVAAITGRGVSTYYADSVKGRFTISRDNAKNTVYLQMKSLKPEDTAVYYCAAVRSKYWYYQGGYSSYGYWGQGTQVTVSS | high polyreactivity |
| QVQLVESGGGLVQAGGSLRLSCAASGITFQYYAMGWYRQAPGKERELVAAITSSGVSTYYADSVKGRFTISRDNAKNTVYLQMNSLKPEDTAVYYCNTVVRGWSTSAYDYWGQGTQVTVSS | low polyreactivity |
| QVQLVESGGGLVQAGGSLRLSCAASGSIFCRYDMGWLDRRLGKKGSSLPLLLVLVTTRTTQTPVKGRFTISRDNAKNTVYLQIICLKPEDTAVYNCAADLRASGLKYEYWGQGTQVTVSS | low polyreactivity |

| Sequence | polyreactivity (PSR sort gate) |
| --- | --- |
| QDQLVESGGGLVQAGGSLRLSCAASGGIFPPNVMGWYRQAPGKERELVAAISRSGGSTYYADSVKGRFTFSRDNAMNTVYLQMNSLKPEDTAVYYCAAANTQRGFRYDYWGQGTQVTVSS | high polyreactivity |
| QVQLVESGGGLVQAGGSLRLICAASGSSFSYNPMVWYRQAPGKERELVAAIRTSGGRTYYADSVKGRFTISRDNAKNTVYLQMNSLKPEDTAVYYCAKRWVYSYGYEYWGQGTQVTVSS | high polyreactivity |
| QVQLVESAGGLVQAGGSLRLSCAASGFIFPRYAMGWYRQAPGKERELVAAISYSGGSTYYADSVKGRFTISRDNAKNTVYLQMNSLKPEDTAVYYCNAYFLSQYQRAYRDDYWGQGTQVTVSS | high polyreactivity |
| QVQLVESGGGLVQAGGSLRISCAASGFTFSRNVMGWYRQAPGKERELVADITLSGASTYYADSVKGRFTISRDNAKNTVYLQMNSLNPEDTAGYYCAADPYLWRWGWRHDYWGQGTQVTVSS | low polyreactivity |
| QVQLVESGGALVQAGGSLRLSCAASGYIFRYYAMGWYRQAPGKVREFVAAISRNGGSKSYADSVKGRFTISRDNAKNTVYLQMISLKPEDTAVYYCNKRVGFLYKSDYWGQGTQVTVSS | high polyreactivity |
| QVQLVESGGGLVQAGGSHRLSCAASGSIFRGYAMGWSIQAPGKERELVAAISWRGTSTYYADSVKGRFTISRDNAKNTVYLQMNSLKPEDTAVYYCAADLDGDYYYYGQGNDYWGQGTQVTVSS | low polyreactivity |
| QVQIVESGGGLVQAGGSLRLSCAPSGRIYGPYAIGLYRQEPGKERELDAAIRSGGSTNYADSVKGRFTISRDNAKNTVYLQMNSLNPEDTAVYYCNAVRHTYGYYSWGQGTQVTVSS | high polyreactivity |
| QVQLVESGGGLVQAGGSLRLSCAASGRTFFKYAMGWYRQEPGKERELVASISRTGGGSTYYADSVKGRFTISRDNAKNTVYLQMNSLQPEDTAVYYCNKYTYRGRTGEFNYWGQGTQVNVSS | high polyreactivity |
| QVQLVESGGGLVQAGGSLRLSCAASGRTIYYYAMGWYRQAPGKERELVAAINYGSGGSTYYADSVKGRFTISRDNAKNTVYLQMNSLKPEDTAVYYCNARRQDWPRKAYGYWGQGTQVTVSS | high polyreactivity |
| QVQLVESGGGLVQAGGSLRLSCAASGRIFFTNAMGWYRQAPGKEREFVAGISFSGDGRTYYADSVKGRFTISRDNAKNTVYLQMNSLKPEDTAVYYCAAPHRSRTHELDYWGQGTQVTVSS | low polyreactivity |
| QVQLEESGGGLVQAGGSLRLSCAASGRIYRYYDMGWYRQAPGKEREFVAAITRSGAITYYADSLKGRFTISRDNAKNTVYLQMNSLKPEDTAVYYCAAVDDDYSIVWYDYWGQVTQVTVSS | low polyreactivity |
| QVQLVDSGGGLVQAGGSLRLSCAASGRIFLVNALGGSRQAPGKERELVAAISYRSGRTYSADSVKGRFTISRDTAKNTVYLQMNSLIPEDTAVYYCAAYTNVADMDYWGQGTQVTVSS | high polyreactivity |
| QVQLVESGGGLVQAGGSLRLSCAASGRIFPAYAMGWYRQPPGKERELVASIRRGGITYADSVKGRFTISRDNAKNTVYLQMNSLKPEDTAVYYCARPQWRDWYGYWGQGTQVTVSS | low polyreactivity |
| QVQLVESGGGLVQAGGSLRLSCAASGSIFYFNAMGWYRQAPGKERELVAAITASGGRTYYADSVKGRFTISRDNAKNTVYLQMNSLKPEDTAVYYCNAYRPWSWWGEMDYWGQGTQVTVSS | high polyreactivity |
| QVQLVESGGGLVQAGGSLRLSCAPSGRTFYPNVMGWSRQAPGKERELVAAITSGGSTYYADSVKGRFTISRDNAKNTVYLQMNSLKPEDTAVYYCAVAYAGGGSRKYDYWGQGTQVTVSS | low polyreactivity |
| QVQLVESGGGLVQAGGSLRLSCAASGFIFNKYAMGWYRPAPGKERELVARITSSGSRTYYADSVKGRFTISRDKAKNTVYLQMISLKPEDTAVYYCNTYYHWLTMDYWGQGTQVTVSS | high polyreactivity |
| QVQLVESGGGLVQAGGSLRLRCAASGSIFNSYAMGWYRQAPGKERELVAAISIRGTRTYYADSVKGRFTISRDNAKNTVYLQMNSLKPEDTAVYYCAADASYTEGMDYWGQGTQVTVSS | high polyreactivity |
| QVQLVESGGGLVQAGGSLRLSCAASGRIFPPNAMGWYRQGPGKERELVAGITSSGDTTYYADSVKGRFTISRDHAKKTVNLQMHSLKPEDTAVNYCAKDDVYADDRSALFDYWGQGTQVTVSS | low polyreactivity |
| QVQLVESGVGLVQAGGSLRLSCAASGYIFFGNAMGWYRQAPGKERELVAAIRWRGTSTYYADSVKGRFTISRDNAKNTVYLQMNSLKPEDTAVYYCAADVVRSNFYGTFLYDYDYWGQGTQVTVSS | low polyreactivity |
| QVQLVESGGGLVQAGGSLRLSCAASGSMFSVYAMGGYRQAPGKEMELVAAISRSGGSTYYADSVKGRFTISRDTAKNTVYLQMNSLKPEDTAVYYCAARLAGRGSSSSRVVRTGGYWGQGTQVTVSS | high polyreactivity |
| HVQLVESGGGLVHAGGSLRLRCAASGFTFTTYAMGWYRQAPWKEMELVARISRRSGSTYYADSVKGRFTLSRDNAKNTVYLQMNSLKPDDTAVYYCNADVDRSTTIFDYWGQGTQVTVSS | high polyreactivity |
